Source: article PMC9783675

Molecular target: recombinant Nodulin 22 (PvNod22) with a 6xHis-tag at the N-terminus, lacking the ER-signal peptide (Phaseolus vulgaris L.)
Assay: ITC; dilution experiment: PvNod22 injected (10 x 2 µL) into buffer, PBS pH 7.5, 25 °C; agglomerates to smaller oligomers; apparent
Design: dH (of dissociation): unit not given here

Kd: 9.13 µM
dH (of dissociation): -49600
Substance: recombinant Nodulin 22 (PvNod22) with a 6xHis-tag at the N-terminus, lacking the ER-signal peptide (natural protein)
